The record followed here is paper PMC8269367, “DNA G-Quadruplexes Contribute to CTCF Recruitment”.

One data set has as its target T1, HMGB2 (Homo sapiens, UniProt P26583 1-209).
T1 sequence: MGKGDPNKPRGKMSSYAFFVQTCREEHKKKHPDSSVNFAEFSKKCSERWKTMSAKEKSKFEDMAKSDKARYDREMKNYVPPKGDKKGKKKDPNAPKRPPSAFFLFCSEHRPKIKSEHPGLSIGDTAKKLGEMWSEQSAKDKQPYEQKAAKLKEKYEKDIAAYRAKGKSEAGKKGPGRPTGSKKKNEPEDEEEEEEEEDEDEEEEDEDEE
As to the kind of experiment: MST; MST, 50 nM labelled protein, 0.61 nM-20 uM oligo, 140 mM potassium phosphate pH 7.2 (6.7 for i-motif N1-3; CTCF oligo CD at pH 6.7), 10 mM NaCl in oligo stocks, 22 C. Conditions: protein: commercial; tags: His; mixed-topology G4.

The target of data set [1] is T2, HMGN1 (Homo sapiens, UniProt P05114 1-100).
T2 sequence: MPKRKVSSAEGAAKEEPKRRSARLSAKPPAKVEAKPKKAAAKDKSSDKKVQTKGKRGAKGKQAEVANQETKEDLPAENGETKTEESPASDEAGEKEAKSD
Described as above. Conditions: protein: commercial; tags: His; parallel G4, partly intermolecular.

In data set [2] the target is T2, HMGN1. As to the kind of experiment: MST; positive control; MST, 50 nM labelled protein, 0.61 nM-20 uM oligo, 140 mM potassium phosphate pH 7.2 (6.7 for i-motif N1-3; CTCF oligo CD at pH 6.7), 10 mM NaCl in oligo stocks, 22 C. Conditions: protein: commercial; tags: His; parallel G4.

As for GGGCCCTGGGAACGGGGAGGG (structured_DNA) [B2-M7], the Kd with HMGB2 is 1600 ± 600 nM.
The molecule GGGAGAGGGAGAGGGAGAGGG (structured_DNA) [B2-M6] gave a Kd in the data set with HMGB2 of 4000 ± 2000 nM.
Turning to GGGGAGGGGGAGGGGGGAGGGAGGGGAGG (structured_DNA) [N1C-3 (N1-C3)], binding with HMGN1 [1] was put at a Kd of 200 ± 100 nM.
Regarding GGTGACAGGGGTATGGGGAGGGG (structured_DNA) [CT1 (G4-2)], the dissociation constant (Kd) in the data set with HMGN1 [2] amounted to 1600 ± 300 nM.
